In paper PMC5070708:
Where “and” joins values, the source holds several entries; their conditions need not be identical. Identical values can stand only once.

Biological target: ILz(6):TRAIL (human) (UniProt P50591)
Test: SEC

“ILz(6):TRAIL (from UniProt P50591 114-281) (ligand)” was tested, and the stoichiometry N was 3 and 6.
